# Laboratory results: the supplement of paper PMC9170038
# Test system: K4 kissing-loop RNA reporter
# Experiment: apparent KD of K4 kissing-loop reporter; higher = weaker reporter binding
# Conditions: Eterna round: R107
# Procedure: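 RNA-MaP round R107: designed RNA switches with theophylline, tryptophan, arginine or FMN aptamers are transcribed on-chip within common flanks. They are titrated with a labelled K4 kissing-loop RNA reporter in RNA-MaP buffer (100 mM Tris pH 7.5, 80 mM KCl, 4 mM MgCl2), without ligand or with the indicated ligand. Median apparent KD per design.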
# [1] = input ligand: theophylline 20 uM
# [2] = input ligand: tryptophan 2.4 mM
# 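Note: bound reporter read as fluorescence of individual clusters on recovered sequencing chips by microscopy, with normalized cluster intensities fitted with a binding model.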
Sequence,apparent KD of K4 kissing-loop reporter (input ligand: FMN 200 uM) [nM],apparent KD of K4 kissing-loop reporter (input ligand: arginine 13.2 mM) [nM],apparent KD of K4 kissing-loop reporter (input ligand: none) [nM],apparent KD of K4 kissing-loop reporter [1] [nM],apparent KD of K4 kissing-loop reporter [2] [nM]
UAAAUUAUCUGAAGGAGCGUGAAAUAAUAUUAAACAUAACAACCCAGUGAUGUUGGGUUAUCACAGGUAGGUCGCAGAUGUAGAU [Same State Arginie B GF 24],95.6,113,98,118,85.5
UAAGAGGACCACUGCAAAAGUCCUCGAAUACGAGGACCGGUACGGCCGCCACUCGAUAAUUUGCAGUGAUGUUGCAAGUAAGAAU [BrourdMod 4 - Jieux - Same State Tryptophan A],120,158,130,201,71.2
UAAUAAAUUCCAGCUAUAUCACUCUUCGAAGGAGCGGACGAAAGUCCAGGUAGGUCGCGAAGAGUGAUGUUCUUUGCGGCGCUGG [Omei KL Arginine A Exc A v5],94.1,60.8,75.4,132,111
UAAUAAAUUCUGGCAAUGUCACUCUUCGAAGGAGCGGACGAAAGUCCAGGUAGGUCGCGAAGAGUGAUGUUCUUCGCGGCGCCAG [Omei KL Arginine A Exc A v1],299,235,235,304,268
UAAUGUGGCACAGGAUAUACUGAUUGGAGUGAUGUUCCAAACAUGGACGUGAGACUUUUACAAGAAGUAGAAGGGUGUUAGAUAU [Exclusion FMN B GF 20],241,298,304,448,306
UAAUUUAUGUCUUUAAUAUAAUAAUCAGAUACCAGUGAUUUAUGACACCCUUGGCAGCUGUAUAGAGUGAUGUUCUUAUACAUAA [JR_Nu_ExcTheophyA_Sub020],388,504,483,547,294
UAAUUUAUGUCUUUAAUAUAAUUUUCAGAUACCAGUGAUUAUUAACACCCUUGGCAGCUGUGUAGAGUGAUGUUCUCAUGCUUAA [#07 K4 Theophylline A Exclusion],307,354,365,373,229
UACACGACUCGUGUAAACCGAGGUAACAGGCAGGAUAUGUAACGGAACAGAAGGGCCAUGUAGCGUGUCCAGUGAUGUUGGAUGC [Betilare],199,166,186,180,173
UACAUAUUAUUAUUUCUACAUUUAUUUAGUCAGGAUAUCGAUUAAACGAGAAGGGACAAUAUCAAGUGAUGUUUGAUAAUUCAAA [JR_SSFMNA_Sub022],85.3,123,81.6,118,60
UACUAUAGUGAUGUUAUAGAUAAAACAGAUACCAGUGUAACAUAACACCCUUGGCAGCUGAUAAGGGAAAGUAUAAAUGUGUAUU [AstrosSSTHe-A#2newdesignED],207,188,199,208,186
UACUAUAGUGAUGUUAUAGAUAAACCAGAUACCAGUGUAACAUAACACCCUUGGCAGCUGAUAAGGGAAAGUAUAAAUGUGUAUU [AstrosSSTHe-A#3newdesignED],230,198,228,219,205
UACUAUAGUGAUGUUAUAGAUAAACCAGAUACCAGUGUAACAUAACACCCUUGGCAGCUGAUGAGGGAAGUUAUCAAAAGAUAAC [AstroSTH-A#10designED4.80],227,190,142,115,198
UAGCGGUAGAGGCCACCGCUAUUCUGAGAAGGAGCGCAGAUGACUGCAGGUAGGUCGCUUAGAGCUUGCAGUGAUGUUGCAAGUU [Tebete],171,175,179,145,131
UAGUCCGGGUGAUGGUCAUCACGUGGCGGGCGAGGACCGGUACGGCCGCCACUCGACUUUGCAGUGAUGUUGCAAACCGGACAAU [Exclusion - Tryptophan A (Freestyle 22)],221,192,201,225,259
UAUAUAGUGACGGCCGCCACUAUUGUGAUUUAAUUGUUAGAGUGAUGUUUUGUUGUUUGAUUUUGUAGGACCGGGUUAUAUGUUA [vnbbwzmullin],1090,851,982,794,839
UAUAUAUGAUGUGAUACCAGUGAAAAGCCAGUGAUGUUGGAGGAGCUGGUAUAUAAAUAAGACCCUUGGCAGCACAAUCACGUAU [#01 K4 Theophylline B Exclusion],227,202,212,221,214
UAUUUAAAUAAAAUAAAAUAAAUUGCUGAUACCAGAGCCAAUUGGCUCCCUUGGCAGCGGAUCGAGUGAUGUUCGUAAAAUUUAU [AK2 SS Theophylline A],28.5,65.4,29.6,61.5,30.3
UAUUUAGUGACGGCCGCCACUAUUGUGAUUUAUUUGUUUGAGUGAUGUUUUGAUGUUUGAUUUUGUAGGACCGGGUUAUGUGUUA [awscmullin],1080,733,938,804,708
UCCAGGAAUCAUGUCGUAGUGAUGUUAUGACGAGGACCGGUACGGCCGCCACUCGUCGUGGCCGGUUCUGAGGGCUAAUCUCUCA [theeternabot_exclusion_KL_Trp_A_34],247,214,273,227,632
UCCCUAAAGGGAGAUACCAGUAAAGAAGUGACGGAGUGGAGUGAUGUUCCAUAUUACUGAUACCCUUGGCAGCUCUUUUGAUUAC [theeternabot_sameState_KL_Theo_B_47],108,155,113,187,93.2
UCCUAGGCUCGAAAGAGCCUAGGAUUAUCUCAGGAUAUCCGGAAACGGAGAAGGGAGAAACUAGUGAUGUUAGGGAUUCCCUCUU,421,110,145,135,126
UCCUGCAAUCGACCACGAAAGUGGAUGGAUACCAGAGUCGAAAGACUCCCUUGGCAGCCAGUGAUGUUGGAAGCAGGUAAAUAAA [#SwitchBubble 17 #K4Late],364,359,445,288,406
